Here are results for one molecule from patent publication US5618693, “Interleukin-2 signal transducers and binding assays” (Tularik, Inc.).

In the data set the target is hStat 5 (affinity purified, 98/94/88 kD from YT cells; 96/95 kD from PBLs) (Homo sapiens, UniProt P42229 SEQ:1-794). Put plainly: pulldown; biotinylated DNA on streptavidin agarose, buffer C, 4 C; retained through wash with mutant oligo 0.2 mg/ml, eluted 0.35 M NaCl. The note with it: tags: native, tyrosine phosphorylated; chain copies: 2. The method, then:
After dialysis, insoluble proteins were removed by centrifugation and the remaining material was chromatographed over a 100 ml S-Sepharose (Pharmacia) column. Protein flow-through was mixed with a DNA-affinity resin prepared by coupling synthetic, biotinylated DNA corresponding to the IL-4 response element of the gene encoding FcgRI (5'-[…]-3) (SEQ ID NO:3) to streptavidin agarose (Sigma). After binding (2 hours at 4° C.), the affinity matrix was placed on a disposable column and washed sequentially with 10 ml of buffer C, 4 ml of buffer C supplemented with a mutated variant of the IL-4 response element (5'-GTATCACCAGTCAAGGAAC-3') (SEQ ID NO:4) at 0.2 mg/ml, and 10 ml of buffer C. Protein was eluted by exposure to buffer C supplemented with 0.35M NaCl, dialyzed against buffer C, and placed on a 0.5 ml Q-Sepharose (Pharmacia) column. The column was washed with 5 ml of buffer C and protein was eluted with 1 ml of buffer C supplemented with 0.35M NaCl.

Chain of hStat 5 (affinity purified, 98/94/88 kD from YT cells; 96/95 kD from PBLs) (P42229 whole entry): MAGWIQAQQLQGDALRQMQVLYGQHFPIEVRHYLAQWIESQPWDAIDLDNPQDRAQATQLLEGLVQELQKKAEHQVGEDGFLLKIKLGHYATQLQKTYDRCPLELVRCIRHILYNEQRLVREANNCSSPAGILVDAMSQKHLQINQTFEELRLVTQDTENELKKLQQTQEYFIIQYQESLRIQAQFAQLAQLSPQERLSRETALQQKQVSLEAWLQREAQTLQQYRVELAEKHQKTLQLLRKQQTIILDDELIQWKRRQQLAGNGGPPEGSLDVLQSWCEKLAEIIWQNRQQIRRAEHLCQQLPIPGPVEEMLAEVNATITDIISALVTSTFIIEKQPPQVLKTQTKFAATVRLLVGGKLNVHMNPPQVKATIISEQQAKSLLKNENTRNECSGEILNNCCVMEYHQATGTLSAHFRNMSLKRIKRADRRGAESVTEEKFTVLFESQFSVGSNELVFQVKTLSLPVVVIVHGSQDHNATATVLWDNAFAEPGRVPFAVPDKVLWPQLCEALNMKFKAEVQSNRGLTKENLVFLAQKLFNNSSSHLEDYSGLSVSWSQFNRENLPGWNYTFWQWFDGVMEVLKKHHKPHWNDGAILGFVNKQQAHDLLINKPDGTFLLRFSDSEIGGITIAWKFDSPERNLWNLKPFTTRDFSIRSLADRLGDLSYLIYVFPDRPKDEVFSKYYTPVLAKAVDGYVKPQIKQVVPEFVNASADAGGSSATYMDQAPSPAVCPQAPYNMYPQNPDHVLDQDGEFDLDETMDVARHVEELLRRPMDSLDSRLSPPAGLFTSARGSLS

B1: FcgRI IL-4 response element probe (dsDNA)
DNA 1: GTATTTCCCAGAAAAGGAAC
DNA 2: GTTCCTTTTCTGGGAAATAC
In the case of B1, the binding result is listed as “binds”.
